# Data from publication PMC9482650, “Quantitative fragmentomics allow affinity mapping of interactomes” (Nature Communications, 2022).
# T1: DLG3_3, Q92796
# T1 sequence (Q92796 374-475, limits assumed, looked up): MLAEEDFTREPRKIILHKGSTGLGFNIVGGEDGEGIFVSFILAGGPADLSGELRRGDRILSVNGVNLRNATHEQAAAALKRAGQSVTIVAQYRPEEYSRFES
# T2: RAPGEF6, Q8TEU7
# T2 sequence (Q8TEU7 525-625, limits assumed, looked up): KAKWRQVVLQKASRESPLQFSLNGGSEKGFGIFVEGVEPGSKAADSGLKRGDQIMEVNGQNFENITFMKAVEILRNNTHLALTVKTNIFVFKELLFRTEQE
# T3: DFNB31_2, Q9P202
# T3 sequence (Q9P202 274-371, limits assumed, looked up): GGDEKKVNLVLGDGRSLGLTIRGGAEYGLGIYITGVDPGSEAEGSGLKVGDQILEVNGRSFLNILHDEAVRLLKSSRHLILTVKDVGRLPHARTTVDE
# T4: NHERF3_4, Q5T2W1
# T4 sequence (Q5T2W1 373-468, limits assumed, looked up): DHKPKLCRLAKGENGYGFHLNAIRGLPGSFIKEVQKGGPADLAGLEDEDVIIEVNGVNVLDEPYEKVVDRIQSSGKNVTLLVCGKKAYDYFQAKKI
# T5: LRRC7, Q96NW7
# T5 sequence (Q96NW7 1440-1537, limits assumed, looked up): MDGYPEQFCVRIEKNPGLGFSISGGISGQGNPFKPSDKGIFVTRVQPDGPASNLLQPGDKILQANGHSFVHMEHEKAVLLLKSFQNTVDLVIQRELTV
# T6: LIN7B, Q9HAP6
# T6 sequence (Q9HAP6 88-185, limits assumed, looked up): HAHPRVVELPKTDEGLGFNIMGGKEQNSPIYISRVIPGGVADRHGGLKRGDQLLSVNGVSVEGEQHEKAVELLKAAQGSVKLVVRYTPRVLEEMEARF
# T7: GRIP1_5, Q9Y3R0
# T7 sequence (Q9Y3R0 568-668, limits assumed, looked up): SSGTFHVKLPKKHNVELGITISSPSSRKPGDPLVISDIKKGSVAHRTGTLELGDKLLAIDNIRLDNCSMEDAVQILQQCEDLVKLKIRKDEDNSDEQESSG
# T8: MPP2, Q14168
# T8 sequence (Q14168 180-250, limits assumed, looked up): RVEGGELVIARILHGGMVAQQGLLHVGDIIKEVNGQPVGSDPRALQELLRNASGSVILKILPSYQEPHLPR
# T9: PARD3B_1, Q8TEW8
# T9 sequence (Q8TEW8 196-299, limits assumed, looked up): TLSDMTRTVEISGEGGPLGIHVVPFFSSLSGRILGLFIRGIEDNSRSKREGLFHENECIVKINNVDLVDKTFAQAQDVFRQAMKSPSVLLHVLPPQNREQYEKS
# T10: DFNB31_3, Q9P202
# T10 sequence (Q9P202 811-907, limits assumed, looked up): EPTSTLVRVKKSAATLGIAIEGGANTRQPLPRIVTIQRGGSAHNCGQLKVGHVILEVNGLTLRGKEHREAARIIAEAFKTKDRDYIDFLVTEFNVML
# T11: GRIP1_4, Q9Y3R0
# T11 sequence (Q9Y3R0 467-571, limits assumed, looked up): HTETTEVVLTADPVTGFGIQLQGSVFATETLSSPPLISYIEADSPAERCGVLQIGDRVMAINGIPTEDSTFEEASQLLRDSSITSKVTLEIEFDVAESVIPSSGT
# T12: MPDZ_12, O75970
# T12 sequence (O75970 1857-1958, limits assumed, looked up): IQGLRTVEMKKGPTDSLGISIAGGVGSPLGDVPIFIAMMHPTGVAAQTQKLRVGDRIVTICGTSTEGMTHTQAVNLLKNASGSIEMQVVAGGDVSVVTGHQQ
# T13: PDZD2_2, O15018
# T13 sequence (O15018 329-429, limits assumed, looked up): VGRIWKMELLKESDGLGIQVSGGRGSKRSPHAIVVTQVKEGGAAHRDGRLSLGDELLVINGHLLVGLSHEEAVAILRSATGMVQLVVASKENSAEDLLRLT
# Molecular target: SCRIB_1, Q14160
# Sequence (Q14160 718-814): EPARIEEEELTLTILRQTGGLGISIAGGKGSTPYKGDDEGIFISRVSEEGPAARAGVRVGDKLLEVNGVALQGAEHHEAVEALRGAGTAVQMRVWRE
# Assay: holdup assay
# Parameters: key: below the threshold = too weak to quantify, mostly under pKd 3.1 to 4
# Conditions: plain residues with an end cap or a label only (N-terminal biotin on a linker: ado-ado)
row,Binder,pKd
1,"DHLGGGGESM [TNRC6A, Q8NDV7]",below the threshold
2,"IPGKEFDTPL [PLCB1, Q9NQ66]",3.93

# Molecular target: GRIP2_5, Q9C0E4
# Sequence (Q9C0E4 544-642): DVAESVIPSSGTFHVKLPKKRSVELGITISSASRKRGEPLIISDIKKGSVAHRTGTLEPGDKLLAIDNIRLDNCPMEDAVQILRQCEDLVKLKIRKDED
# Assay: holdup assay
# Parameters: key: below the threshold = too weak to quantify, mostly under pKd 3.1 to 4
# Conditions: plain residues with an end cap or a label only (N-terminal biotin on a linker: ado-ado)
row,Binder,pKd
1,"DHLGGGGESM [TNRC6A, Q8NDV7]",below the threshold
2,"IPGKEFDTPL [PLCB1, Q9NQ66]",below the threshold

# Molecular target: T1, DLG3_3, Q92796
# Assay: holdup assay
# Parameters: key: below the threshold = too weak to quantify, mostly under pKd 3.1 to 4
# Conditions: plain residues with an end cap or a label only (N-terminal biotin on a linker: ado-ado)
row,Binder,pKd
1,"DHLGGGGESM [TNRC6A, Q8NDV7]",below the threshold
2,"IPGKEFDTPL [PLCB1, Q9NQ66]",below the threshold

# Molecular target: NHERF2_2, Q15599
# Sequence (Q15599 142-238): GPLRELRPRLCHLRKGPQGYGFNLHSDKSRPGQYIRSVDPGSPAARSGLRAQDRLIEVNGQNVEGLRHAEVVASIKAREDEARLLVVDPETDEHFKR
# Assay: holdup assay
# Parameters: key: below the threshold = too weak to quantify, mostly under pKd 3.1 to 4
# Conditions: plain residues with an end cap or a label only (N-terminal biotin on a linker: ado-ado)
row,Binder,pKd
1,"DHLGGGGESM [TNRC6A, Q8NDV7]",below the threshold
2,"IPGKEFDTPL [PLCB1, Q9NQ66]",5.1

# Molecular target: Inadl_2, Q8NI35
# Sequence (Q8NI35 238-335): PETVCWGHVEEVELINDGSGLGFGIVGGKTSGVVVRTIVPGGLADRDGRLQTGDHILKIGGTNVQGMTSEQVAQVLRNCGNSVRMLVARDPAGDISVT
# Assay: holdup assay
# Parameters: key: below the threshold = too weak to quantify, mostly under pKd 3.1 to 4
# Conditions: plain residues with an end cap or a label only (N-terminal biotin on a linker: ado-ado)
row,Binder,pKd
1,"DHLGGGGESM [TNRC6A, Q8NDV7]",below the threshold
2,"IPGKEFDTPL [PLCB1, Q9NQ66]",below the threshold

# Molecular target: TJP2_1, Q9UDY2
# Sequence (Q9UDY2 24-128): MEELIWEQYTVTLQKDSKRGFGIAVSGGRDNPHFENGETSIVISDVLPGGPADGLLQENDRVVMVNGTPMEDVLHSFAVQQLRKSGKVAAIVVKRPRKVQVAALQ
# Assay: holdup assay
# Parameters: key: below the threshold = too weak to quantify, mostly under pKd 3.1 to 4
# Conditions: plain residues with an end cap or a label only (N-terminal biotin on a linker: ado-ado)
row,Binder,pKd
1,"DHLGGGGESM [TNRC6A, Q8NDV7]",below the threshold
2,"IPGKEFDTPL [PLCB1, Q9NQ66]",below the threshold

# Molecular target: T2, RAPGEF6, Q8TEU7
# Assay: holdup assay
# Parameters: key: below the threshold = too weak to quantify, mostly under pKd 3.1 to 4
# Conditions: plain residues with an end cap or a label only (N-terminal biotin on a linker: ado-ado)
row,Binder,pKd
1,"DHLGGGGESM [TNRC6A, Q8NDV7]",below the threshold
2,"IPGKEFDTPL [PLCB1, Q9NQ66]",below the threshold

# Molecular target: T3, DFNB31_2, Q9P202
# Assay: holdup assay
# Parameters: key: below the threshold = too weak to quantify, mostly under pKd 3.1 to 4
# Conditions: plain residues with an end cap or a label only (N-terminal biotin on a linker: ado-ado)
row,Binder,pKd
1,"DHLGGGGESM [TNRC6A, Q8NDV7]",below the threshold
2,"IPGKEFDTPL [PLCB1, Q9NQ66]",below the threshold

# Molecular target: T4, NHERF3_4, Q5T2W1
# Assay: holdup assay
# Parameters: key: below the threshold = too weak to quantify, mostly under pKd 3.1 to 4
# Conditions: plain residues with an end cap or a label only (N-terminal biotin on a linker: ado-ado)
row,Binder,pKd
1,"DHLGGGGESM [TNRC6A, Q8NDV7]",below the threshold
2,"IPGKEFDTPL [PLCB1, Q9NQ66]",4.31

# Molecular target: T5, LRRC7, Q96NW7
# Assay: holdup assay
# Parameters: key: below the threshold = too weak to quantify, mostly under pKd 3.1 to 4
# Conditions: plain residues with an end cap or a label only (N-terminal biotin on a linker: ado-ado)
row,Binder,pKd
1,"DHLGGGGESM [TNRC6A, Q8NDV7]",below the threshold
2,"IPGKEFDTPL [PLCB1, Q9NQ66]",below the threshold

# Molecular target: MAST2, Q6P0Q8
# Sequence (Q6P0Q8 1099-1202): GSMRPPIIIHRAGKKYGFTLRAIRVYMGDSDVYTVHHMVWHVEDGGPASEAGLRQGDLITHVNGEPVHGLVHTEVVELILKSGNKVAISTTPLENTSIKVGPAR
# Assay: holdup assay
# Parameters: key: below the threshold = too weak to quantify, mostly under pKd 3.1 to 4
# Conditions: plain residues with an end cap or a label only (N-terminal biotin on a linker: ado-ado)
row,Binder,pKd
1,"DHLGGGGESM [TNRC6A, Q8NDV7]",3.62
2,"IPGKEFDTPL [PLCB1, Q9NQ66]",4.95

# Molecular target: T6, LIN7B, Q9HAP6
# Assay: holdup assay
# Parameters: key: below the threshold = too weak to quantify, mostly under pKd 3.1 to 4
# Conditions: plain residues with an end cap or a label only (N-terminal biotin on a linker: ado-ado)
row,Binder,pKd
1,"DHLGGGGESM [TNRC6A, Q8NDV7]",below the threshold
2,"IPGKEFDTPL [PLCB1, Q9NQ66]",below the threshold

# Molecular target: LNX1_3, Q8TBB1
# Sequence (Q8TBB1 500-596): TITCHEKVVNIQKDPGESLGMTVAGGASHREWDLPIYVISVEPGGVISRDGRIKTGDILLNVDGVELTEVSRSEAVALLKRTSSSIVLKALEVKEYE
# Assay: holdup assay
# Parameters: key: below the threshold = too weak to quantify, mostly under pKd 3.1 to 4
# Conditions: plain residues with an end cap or a label only (N-terminal biotin on a linker: ado-ado)
row,Binder,pKd
1,"DHLGGGGESM [TNRC6A, Q8NDV7]",below the threshold
2,"IPGKEFDTPL [PLCB1, Q9NQ66]",below the threshold

# Molecular target: T7, GRIP1_5, Q9Y3R0
# Assay: holdup assay
# Parameters: key: below the threshold = too weak to quantify, mostly under pKd 3.1 to 4
# Conditions: plain residues with an end cap or a label only (N-terminal biotin on a linker: ado-ado)
row,Binder,pKd
1,"DHLGGGGESM [TNRC6A, Q8NDV7]",below the threshold
2,"IPGKEFDTPL [PLCB1, Q9NQ66]",below the threshold

# Molecular target: PDZRN4_1, Q6ZMN7
# Sequence (Q6ZMN7 213-318): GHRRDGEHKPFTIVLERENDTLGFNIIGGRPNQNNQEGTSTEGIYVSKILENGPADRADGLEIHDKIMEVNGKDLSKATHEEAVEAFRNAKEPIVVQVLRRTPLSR
# Assay: holdup assay
# Parameters: key: below the threshold = too weak to quantify, mostly under pKd 3.1 to 4
# Conditions: plain residues with an end cap or a label only (N-terminal biotin on a linker: ado-ado)
row,Binder,pKd
1,"DHLGGGGESM [TNRC6A, Q8NDV7]",below the threshold
2,"IPGKEFDTPL [PLCB1, Q9NQ66]",4.3

# Molecular target: SCRIB_3, Q14160
# Sequence (Q14160 999-1103): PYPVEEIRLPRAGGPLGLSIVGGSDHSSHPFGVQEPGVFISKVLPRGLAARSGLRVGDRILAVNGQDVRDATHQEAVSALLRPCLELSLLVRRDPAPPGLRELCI
# Assay: holdup assay
# Parameters: key: below the threshold = too weak to quantify, mostly under pKd 3.1 to 4
# Conditions: plain residues with an end cap or a label only (N-terminal biotin on a linker: ado-ado)
row,Binder,pKd
1,"DHLGGGGESM [TNRC6A, Q8NDV7]",below the threshold
2,"IPGKEFDTPL [PLCB1, Q9NQ66]",4.3

# Molecular target: T8, MPP2, Q14168
# Assay: holdup assay
# Parameters: key: below the threshold = too weak to quantify, mostly under pKd 3.1 to 4
# Conditions: plain residues with an end cap or a label only (N-terminal biotin on a linker: ado-ado)
row,Binder,pKd
1,"DHLGGGGESM [TNRC6A, Q8NDV7]",below the threshold
2,"IPGKEFDTPL [PLCB1, Q9NQ66]",below the threshold

# Molecular target: T9, PARD3B_1, Q8TEW8
# Assay: holdup assay
# Parameters: key: below the threshold = too weak to quantify, mostly under pKd 3.1 to 4
# Conditions: plain residues with an end cap or a label only (N-terminal biotin on a linker: ado-ado)
row,Binder,pKd
1,"DHLGGGGESM [TNRC6A, Q8NDV7]",3.59
2,"IPGKEFDTPL [PLCB1, Q9NQ66]",below the threshold

# Molecular target: T10, DFNB31_3, Q9P202
# Assay: holdup assay
# Parameters: key: below the threshold = too weak to quantify, mostly under pKd 3.1 to 4
# Conditions: plain residues with an end cap or a label only (N-terminal biotin on a linker: ado-ado)
row,Binder,pKd
1,"DHLGGGGESM [TNRC6A, Q8NDV7]",below the threshold
2,"IPGKEFDTPL [PLCB1, Q9NQ66]",below the threshold

# Molecular target: T11, GRIP1_4, Q9Y3R0
# Assay: holdup assay
# Parameters: key: below the threshold = too weak to quantify, mostly under pKd 3.1 to 4
# Conditions: plain residues with an end cap or a label only (N-terminal biotin on a linker: ado-ado)
row,Binder,pKd
1,"DHLGGGGESM [TNRC6A, Q8NDV7]",below the threshold
2,"IPGKEFDTPL [PLCB1, Q9NQ66]",below the threshold

# Molecular target: T12, MPDZ_12, O75970
# Assay: holdup assay
# Parameters: key: below the threshold = too weak to quantify, mostly under pKd 3.1 to 4
# Conditions: plain residues with an end cap or a label only (N-terminal biotin on a linker: ado-ado)
row,Binder,pKd
1,"DHLGGGGESM [TNRC6A, Q8NDV7]",below the threshold
2,"IPGKEFDTPL [PLCB1, Q9NQ66]",below the threshold

# Molecular target: T13, PDZD2_2, O15018
# Assay: holdup assay
# Parameters: key: below the threshold = too weak to quantify, mostly under pKd 3.1 to 4
# Conditions: plain residues with an end cap or a label only (N-terminal biotin on a linker: ado-ado)
row,Binder,pKd
1,"DHLGGGGESM [TNRC6A, Q8NDV7]",below the threshold
2,"IPGKEFDTPL [PLCB1, Q9NQ66]",3.62

# Molecular target: DLG1_1, Q12959
# Assay: holdup assay
# Parameters: key: below the threshold = too weak to quantify, mostly under pKd 3.1 to 4
# Conditions: plain residues with an end cap or a label only (N-terminal biotin on a linker: ado-ado)
row,Binder,pKd
1,"DHLGGGGESM [TNRC6A, Q8NDV7]",below the threshold
2,"IPGKEFDTPL [PLCB1, Q9NQ66]",below the threshold

# Molecular target: SNX27, Q96L92
# Assay: holdup assay
# Parameters: key: below the threshold = too weak to quantify, mostly under pKd 3.1 to 4
# Conditions: plain residues with an end cap or a label only (N-terminal biotin on a linker: ado-ado)
row,Binder,pKd
1,"DHLGGGGESM [TNRC6A, Q8NDV7]",below the threshold
2,"IPGKEFDTPL [PLCB1, Q9NQ66]",5.17
